We go through seven molecules from patent publication US20030130166A1, “Polynucleotide encoding a human junctional adhesion protein (JAM2)” (priority 1999, published 2003).

One may read the IC50 as the concentration at which inhibition is half-maximal.

Sequences and labels used below:
B4: JAM2-Fc (extracellular domain of human JAM2 fused to the constant region of mouse IgG-2a, secreted from Sf21 insect cells) (Fc fusion)
chain: FSAPKDQQVVTAVEYQEAILACKTPKKTVSSRLEWKKLGRSVSFVYYQQTLQGDFKNRAEMIDFNIRIKNVTRSDAGKYRCEVSAPSEQGQNLEEDTVTLEVLVAPAVPSCEVPSSALSGTVVELRCQDKEGNPAPEYTWFKDGIRLLENPRLGSQSTNSSYTMNTKTGTLQFNTVSKLDTGEYSCEARNSVGYRRCPGKRMQVDDLNIS
notes: In the assays it was captured on 96 well plates by goat anti-mouse IgG2a; also called recombinant JAM2; JAM2 extracellular domain; not shown: constant region of mouse IgG-2a (mIgG2a) from the modified pFastBac1 vector

Bridges are numbered along the chain shown (N, C = ends). Where no end group is shown, it is not given here.

In assay [1] the target is T1, α4β1 integrin, endogenous on HSB T cells (UniProt P13612 34-1032; P05556 21-798, limits assumed).
T1 construct: whole, on cells; also called α4 integrin; alpha 4 integrin
T1 sequence (P13612 34-1032 limits assumed, chain 1 of 2): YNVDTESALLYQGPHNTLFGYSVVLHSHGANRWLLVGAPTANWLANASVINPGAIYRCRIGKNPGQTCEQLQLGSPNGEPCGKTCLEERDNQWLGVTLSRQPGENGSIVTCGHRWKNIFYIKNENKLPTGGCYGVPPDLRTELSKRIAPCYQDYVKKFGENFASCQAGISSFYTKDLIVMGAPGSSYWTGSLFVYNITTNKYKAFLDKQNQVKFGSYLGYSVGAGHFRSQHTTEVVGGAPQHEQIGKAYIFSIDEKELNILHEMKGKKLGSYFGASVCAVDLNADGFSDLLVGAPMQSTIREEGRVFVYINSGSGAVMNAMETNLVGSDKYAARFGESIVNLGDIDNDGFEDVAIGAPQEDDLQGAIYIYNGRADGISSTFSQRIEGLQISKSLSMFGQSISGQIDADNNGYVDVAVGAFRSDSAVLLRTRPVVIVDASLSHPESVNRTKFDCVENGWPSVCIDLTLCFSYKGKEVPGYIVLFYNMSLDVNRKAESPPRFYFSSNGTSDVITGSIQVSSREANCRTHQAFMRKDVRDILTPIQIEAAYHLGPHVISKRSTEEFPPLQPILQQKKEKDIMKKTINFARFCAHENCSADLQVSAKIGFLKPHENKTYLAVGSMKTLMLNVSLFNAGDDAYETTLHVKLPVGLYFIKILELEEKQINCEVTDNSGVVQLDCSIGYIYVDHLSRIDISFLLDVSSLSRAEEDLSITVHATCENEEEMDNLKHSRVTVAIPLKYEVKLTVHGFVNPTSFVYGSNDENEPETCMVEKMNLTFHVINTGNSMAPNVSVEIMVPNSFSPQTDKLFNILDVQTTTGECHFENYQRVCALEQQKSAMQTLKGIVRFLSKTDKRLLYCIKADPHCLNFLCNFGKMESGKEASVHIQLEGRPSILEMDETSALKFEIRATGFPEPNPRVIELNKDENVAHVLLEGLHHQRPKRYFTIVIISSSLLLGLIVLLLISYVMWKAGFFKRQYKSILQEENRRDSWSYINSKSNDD
T1 sequence (P05556 21-798 limits assumed, chain 2 of 2): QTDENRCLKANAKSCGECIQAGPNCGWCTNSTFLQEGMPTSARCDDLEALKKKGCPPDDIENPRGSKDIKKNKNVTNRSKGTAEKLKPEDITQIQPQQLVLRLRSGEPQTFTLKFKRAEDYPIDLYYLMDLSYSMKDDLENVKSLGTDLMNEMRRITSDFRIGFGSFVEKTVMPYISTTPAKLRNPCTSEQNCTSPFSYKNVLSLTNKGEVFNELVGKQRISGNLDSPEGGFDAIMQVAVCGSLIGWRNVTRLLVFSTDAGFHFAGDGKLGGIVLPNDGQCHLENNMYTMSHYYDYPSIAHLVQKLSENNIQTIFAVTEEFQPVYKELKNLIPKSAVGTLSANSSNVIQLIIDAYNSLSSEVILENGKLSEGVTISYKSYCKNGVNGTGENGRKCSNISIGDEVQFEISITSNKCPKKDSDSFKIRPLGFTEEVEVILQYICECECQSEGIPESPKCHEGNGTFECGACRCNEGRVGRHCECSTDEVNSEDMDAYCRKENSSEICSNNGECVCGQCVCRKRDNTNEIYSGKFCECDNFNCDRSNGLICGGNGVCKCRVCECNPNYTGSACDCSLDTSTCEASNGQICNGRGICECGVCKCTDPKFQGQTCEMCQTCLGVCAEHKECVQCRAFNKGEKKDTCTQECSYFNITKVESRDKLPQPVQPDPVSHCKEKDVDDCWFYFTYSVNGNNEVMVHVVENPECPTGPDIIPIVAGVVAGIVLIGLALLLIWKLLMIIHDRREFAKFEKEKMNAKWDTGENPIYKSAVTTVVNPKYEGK
The experiment in a line: inhibition of Mn-enhanced adhesion of calcein-loaded HSB cells to captured JAM2-Fc (FIG. 12B). As to the method:
(§1) JAM2-Fc adhesion to T cell lines was performed by capture of fusion protein by goat anti-mouse coated 96 well plates as described in Cunningham et al., J. Biol. Chem., 275:34750-34756 (2000). The HSB cells were loaded with calcien-AM (Molecular Probes Inc., Eugene Oreg.) and re-suspended in Tris Buffered Saline (TBS) with or without the addition of 1 mM MnCl₂. Binding to mouse IgG2a was used to subtract background. Soluble JAM3 was generated from a JAM3-Fc fusion that was digested with thrombin and purified to remove the Fc component. Neutralizing anti-JAM3 polyclonal serum was generated in mice using human JAM3 extracellular domain as immunogen. […] Following adhesion for 90 minutes at 37° C., wells were washed 3 times at room temperature. Adhered cells were lyzed and fluorescence quantified in a Cytofluor with excitation at 485/20 nm and emission at 530/25.

The target in assay [2] is B4. Kind of assay: the inventors' reading of the inhibition of HSB adhesion to captured JAM2-Fc by soluble JAM3 (FIG. 13A). The procedure: as §1
The inventors believe that soluble JAM3 ectodomain would bind to the JAM2 on the well surface and prevent its interaction with JAM3 on the HSB cell surface. It is concluded that under these conditions, that JAM2 is unable to engage α4 integrin. Therefore, a specific interaction of JAM2 with cell-surface bound JAM3 is necessary before JAM2 can bind α4 integrin. Likewise, if neutralizing anti-JAM3 antibodies are used to prevent JAM2 binding to cell surface JAM3, then JAM2 is also unable to engage integrin (FIG. 13B).

A further assay has as its system HSB cells. Kind of assay: In vitro adhesion assay, calcein loaded cells on captured Fc fusion protein. It counts as cell-based. As to the method:
(§2) Biol. 52:85 (1992), herein incorporated by reference.
(§3) The capacity of JAM2 extracellular domain to adhere to various leukocyte cell lines according to a previously established in vitro binding assay performed under static conditions was next examined (see Todderud, G., J. Leukoc, Biol. 52:85(1992)). Calcein loaded cells were allowed to interact with JAM2-Fc captured in 96 well plates in binding buffer (hereinafter “BB”) which contained TBS plus 1 mM calcium, magnesium and manganese. Non-specific binding of cells to captured mIgG2a was determined simultaneously and subtracted. […] Binding to the erythroleukemic K562 cell lines was non-existent.

Assay [3] has as its target T2, human JAM3 (Junctional Adhesion Molecule 3), endogenous on HSB T cells (human, UniProt Q9BX67 32-310).
T2 construct: whole, on cells; also called cell surface JAM3; 43 kDa protein
T2 sequence (looked up): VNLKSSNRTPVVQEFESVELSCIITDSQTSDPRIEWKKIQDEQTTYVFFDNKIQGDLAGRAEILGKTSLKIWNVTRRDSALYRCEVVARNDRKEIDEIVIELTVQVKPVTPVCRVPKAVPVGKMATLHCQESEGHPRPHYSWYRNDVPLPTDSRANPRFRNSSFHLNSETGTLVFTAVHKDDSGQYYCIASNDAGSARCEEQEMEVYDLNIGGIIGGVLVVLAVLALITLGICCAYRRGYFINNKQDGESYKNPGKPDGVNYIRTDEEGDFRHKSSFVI
Kind of assay: adhesion of calcein-loaded HSB cells to captured JAM2-Fc in TBS+Ca/Mg/Mn (FIG. 7). The procedure: In vitro adhesion assays were performed in 96 well plates essentially as described in Todderud, G., J. J. Leukoc. Biol. 52:85 (1992), herein incorporated by reference. Briefly, 50 μl of goat anti-mouse IgG2a was coated at 5 μg/ml in PBS and used to capture 4.8 pmoles of JAM2-Fc or mIgG2a (control). Various leukocyte cell lines i.e. T lymphocytes, HSB, HPB-ALL; B lymphocytes, RAMOS; monocytic cells, HL60, THP-1, and the erythroleukemic, K562 lines were labeled with calcein (Molecular Probes Inc., Eugene, Oreg.) at 50 μg/ml for 25 minutes at 37° C. with 250,000 cells/well in binding buffer that consisted of Tris buffered saline plus 1 mM each of CaCl₂, MgCl₂ and MnCl₂. Wells were washed 3×, lysed with 50 mM Tris (pH 7.5), 5 mM EDTA, 1% NP40, and fluorescence read in a Cytofluor with excitation at 485/20 nm and emission at 530/25 nm. Specific binding was calculated as fluorescence with JAM2-Fc minus fluorescence with mIgG2a. For antibody inhibition, protein captured on wells or HSB cells were incubated for 30 min at RT in binding buffer with 1:100×dilution of preimmune (normal mouse serum) or anti-JAM2 mouse polyclonal serum. […] Overall differences among experimental groups for each parameter were first assessed by one-way analysis of variance (ANOVA) and individual pairwise group comparisons were analyzed by Fisher's protected least significance difference (PLSD) post hoc test. […]

For the next assay, the system named is HPB-ALL. The experiment in a line: In vitro adhesion assay, calcein loaded cells on captured Fc fusion protein. It counts as cell-based. The settings on record: binding buffer: TBS plus 1 mM calcium, magnesium and manganese; FIG. 7. As to the method: as §2, §3
The next assay concerns K562 cell lines. The description is as above. It counts as cell-based. As to conditions: binding buffer: TBS plus 1 mM calcium, magnesium and manganese; FIG. 7. The procedure:
as §2, §3

For assay [4], the target named is T2, human JAM3 (Junctional Adhesion …). The experiment in a line: adhesion of calcein-loaded HSB cells to Fc fusion protein.

B1: TBC 772, cyclic hexapeptide (C*WLDVC*), antagonist of alpha 4 integrins (peptide)
peptide: CWLDVC
modifications: bridge 1-6; also: cyclic hexapeptide, bond type between C* residues not given here
On to B1, for which, in assay [1], the IC50 was roughly 60 nM.

B2: soluble JAM3 (JAM3 ectodomain from a JAM3-Fc fusion digested with thrombin and purified to remove the Fc) (receptor, human, UniProt Q9BX67 32-241, looked up)
chain: VNLKSSNRTPVVQEFESVELSCIITDSQTSDPRIEWKKIQDEQTTYVFFDNKIQGDLAGRAEILGKTSLKIWNVTRRDSALYRCEVVARNDRKEIDEIVIELTVQVKPVTPVCRVPKAVPVGKMATLHCQESEGHPRPHYSWYRNDVPLPTDSRANPRFRNSSFHLNSETGTLVFTAVHKDDSGQYYCIASNDAGSARCEEQEMEVYDLN
notes: extracellular domain; It was added at a 10-fold molar ratio; also called soluble JAM3 ectodomain
With B2, the binding result in assay [2] is on record as “binds”.

B3: N-terminal Ig-fold of JAM2: first Ig domain of JAM2 synthesized as a secreted protein in insect cells (protein)
chain: FSAPKDQQVVTAVEYQEAILACKTPKKTVSSRLEWKKLGRSVSFVYYQQTLQGDFKNRAEMIDFNIRIKNVTRSDAGKYRCEVSAPSEQGQNLEEDTVTLEV
modifications: left off: a dimerising Fc or GST
notes: first Ig domain of JAM2 synthesized as a secreted protein in insect cells
With B3, the “adhesion to HSB cells” value with HSB cells (TBS and TBS+Mn, FIG. 10) was “capable of adhering to HSB cells”.

Consider B4, for which, in assay [3], the binding result is reported as “binds”.

B5: JAM2-Fc: extracellular domain of human JAM2 secreted from Sf21 insect cells as a fusion to mIgG2a (protein)
chain: FSAPKDQQVVTAVEYQEAILACKTPKKTVSSRLEWKKLGRSVSFVYYQQTLQGDFKNRAEMIDFNIRIKNVTRSDAGKYRCEVSAPSEQGQNLEEDTVTLEVLVAPAVPSCEVPSSALSGTVVELRCQDKEGNPAPEYTWFKDGIRLLENPRLGSQSTNSSYTMNTKTGTLQFNTVSKLDTGEYSCEARNSVGYRRCPGKRMQVDDLNIS
modifications: left off: a dimerising Fc or GST
notes: extracellular domain of human JAM2 secreted from Sf21 insect cells as a fusion to mIgG2a
For the molecule B5, the “capture of HPB-ALL cells” value in the assay on HPB-ALL was “quite efficiently”. For the same molecule, in the assay on HSB cells (binding buffer: TBS plus 1 mM calcium, magnesium and manganese, FIG. 7), the “capture of HSB cells” value was “quite efficiently”. Moreover, in the assay on K562 cell lines, the “binding to K562 cells” value is “non-existent”.

B6: human JAM1-Fc (Fc fusion, UniProt Q9Y624 28-238, looked up)
chain: SVTVHSSEPEVRIPENNPVKLSCAYSGFSSPRVEWKFDQGDTTRLVCYNNKITASYEDRVTFLPTGITFKSVTREDTGTYTCMVSEEGGNSYGEVKVKLIVLVPPSKPTVNIPSSATIGNRAVLTCSEQDGSPPSEYTWFKDGIVMPTNPKSTRAFSNSSYVLNPTTGELVFDPLSASDTGEYSCEARNGYGTPMTSNAVRMEAVERNVGV
notes: not shown: Fc part not described for this construct
For B6, the binding result in assay [4] is recorded as “no binding”.

B7: human JAM1-Fc: Fc fusion of JAM1, the human homologue of mouse JAM (protein)
chain: SVTVHSSEPEVRIPENNPVKLSCAYSGFSSPRVEWKFDQGDTTRLVCYNNKITASYEDRVTFLPTGITFKSVTREDTGTYTCMVSEEGGNSYGEVKVKLIVLVPPSKPTVNIPSSATIGNRAVLTCSEQDGSPPSEYTWFKDGIVMPTNPKSTRAFSNSSYVLNPTTGELVFDPLSASDTGEYSCEARNGYGTPMTSNAVRMEAVERNVGV
modifications: left off: a dimerising Fc or GST
notes: Fc fusion of JAM1, the human homologue of mouse JAM
Turning to B7, the “binding of calcein loaded HSB cells” value with HSB cells is recorded as “unable to bind”.
